Data from the nanobody polyreactivity screen of Harvey et al. (2022).

Test: yeast display, Sf9 membrane polyspecificity reagent, FACS + sequencing; frameworks hold sequencing errors
Outline: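 Galactose-induced (36–48 hours) yeast carrying a synthetic nanobody display library were exposed to 10% biotinylated, detergent-solubilized Sf9 membrane reagent at 4 °C for 1 hour. FACS followed streptavidin microbead enrichment, using low and high (top ~1%) gates for expression (anti-HA) and reagent binding (streptavidin). Colony PCR, MiSeq 2 × 250 sequencing and CDR-length filtering followed. Labels for polyreactivity reflect the gate of origin.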

Row | Sequence | polyreactivity (PSR sort gate)
1 | QVQLVESGGGLVQAGGSLRLSCAASGRTFPPYAMGWYRQAPRKESELVAAISGSGASTYYADSVKGRFTISRDNAKNTVYLQMNSLKPEDTAVYYCAARRGSGKFGKYRGVDYWGQGTQVTVSS | high polyreactivity
2 | QVQLVESGGGLVQAGGSLRLSCATSGSIFPTYAMGSYRQAPGKERELVAAISAIVGGTYYADSVKGRFTISRDNAKNTVYLQMNSLKPEDTAVYYCNKTKFQGYDYWGQGTQVTVSS | low polyreactivity
3 | QVQLVESGGGLVQAGGSLRLSCAASGSIFDWYAMGWYRQAPGKEGELVAAISSGDSTYYADSVKGRFTISRDNAKNTVYLQMNSLKPEYTAVYYCAAVTKLSGIRYNYWGQGTQVTVSS | low polyreactivity
4 | QVQLVESGGGLVQAGGSLRLSCAASGFTFSLYAMGWYRQAPGKERELVAAISRSGGSTYYADSVKGRFTISRDNAKNTVYLQMNSLNPEDTAVYYCAAREQTYTQRGKKLYYYWGQGTQVTVSS | high polyreactivity
5 | QVQLVESGGGLVQAGGSLRLSCAASGSIFVGYTMGWYRQAPGKERELVAAITRRGGSTYYADSVKGRFTISRDNAKNTVYLQMNSLKPEDTAVYYCAAEVRRYVIVPYYYWGQGTQLTVSS | high polyreactivity
6 | QVQLVESGGRLVQAGGSLRLSCAASGFTFNRYAMGGYRHAPGKERELVARITRGGSTKYADSVKGRFTISRDNAKNTVYLQMNSLKPEDTAVYYCAADYGGFLGYDYWGQGTQVTVSS | high polyreactivity
7 | QVQLVESGGGLVQAGGSLRLSCAASGGTFSKNAMGWSRQAPGKERELVADIRSGGSTYYADSVKGRFTISRDNAKNTVYLQMNSLKPEDTAVYYCNADGDVNEYDYWGQGTQVTVSS | low polyreactivity
8 | QVQLVESGGGLVQAGGSLRLSCAASGSIFVDYAMGWSRPAPGKERELVVAISLSGGSTYYADSVKGRFTISRDNAKNTVYLQMNSLKPEDTAVYYCNAELIKGTYRWYEGGSQYGYWGHGTQVTVSS | low polyreactivity
9 | QVQLVESGGGLVQAGGSLRLSCAASGSTFYRYAMGWYRQAPGKERELVAAITRSDGITYYADSVKGRFTISRDNAKNTVYLQMNSLKPEDTAVYYCAKGYVGSFYDDFYYWGQGTQVTVSS | low polyreactivity
10 | QVQLVESGGGLVQAGGSLRLSCAASGSTFSPYAMGWYRQAPGKERELVAAITGSTGSTYYAESVKGRFTISRDNAKNTVYLQMNSLKPEDTAVYYCAAVSSNARHVSRRRGYYWGQGTQVTVSS | high polyreactivity
11 | QVQLVESGGGLVQAGGSLRLSCAASGSIFDYYAMGWYRQAPGKERELVASINSSGTGTFYADSVKGRFTISRDNAKNTVYLQMNSLKPEDTAVYSCATRQAVGYSSGRGYGYWGQGTQVTVSS | low polyreactivity
12 | QVQLVESGGGLVQAGGSLRLSCAASGRTFSYNAMGWYRQAPGKERELVARISSGGSTNYADSVKGRFTISRDNAKNTVYLQMNSLKPEDTAVYYCNAGSYVWEEDYCGQGTQVTVSS | high polyreactivity
13 | QVQLVESGGGLVQAGGSLRLSCAASGITFKYYTMGWYRQAPGKERELVAAITADTGTTYYADSVKGRFTISRDNAKNTVYLQMNSLKPEDTAVYYCATRDVFYDDDYWGQGTQVTVSS | high polyreactivity
14 | QVQLVESGGGLVQAGGSLRLSCVPSARTFYVYAMGWYRQSPGKQSELVAAIDYSGGDTYYADSVKGRFTISRDNAKNTVYLQMNSLKPVDTAVYYCAAEEYIPIYRYDYEYWGQGTQVTVSS | high polyreactivity
15 | QVQLVETGGGLVQAGGSLRLSCAASGTIFKKYAMGWYRQAPGKERELVAAITRGTYYADSVKGRFTISRDNAKNTVYLQMNSLIPEDTAVYYFNREYWGRGYYRVRGEYDYWGQGTQVTVSS | low polyreactivity
16 | QVQLVESGGGLVQAGGSLRLSCAASGIIFYKYTMGWYRQAPGKERELVAAITKSGVRTYYADSVKGRFTISRDNAKNTVYLQMKSLKPEDTSVYYCAAKTPTKDRGSDFDYWGQGTQVTVSS | high polyreactivity
17 | QVQLVESGGGLVQAGGSLRLSCAASGLIFRYYAMGWYRQAPGKERELVAAISLRGGSTYYADSVKGRFTISRDNAKNTVYLQMNSLKPEDTAVYYCAAQWAAFSVANQYGYWGQGTQVTVSS | high polyreactivity
18 | QVQLVESGGGLVQAGGSLRLSCAASGSIFRGYAMGWYRQAPGKERELVAAITSRGGSTYYADSVKGRFTISRDIAKNTVYLQMNSLKPEDTAVYYCNKRVYYPWGQGTQVTVSS | high polyreactivity
19 | QVQLVESGGGLVQAGGSLRLSCAASGRTFPYNAMGWYRQAPGKERELVAAISSGGSTNYADSVKGRFTITRDNAKKTVYLQRNSLKPEDTAVYYCAVTGWPRYTWYSYGYWGQGTQVTVSS | low polyreactivity
20 | QVQLVESGGGLVQAGGSLRLSCAASGIIFGKYAMGWYRQAPGKERELVASITVDGGTTYYADSVKGRFTISRDNAKNTVYLQMNSLKPEDTAVYYCATGVFAEQWFDYWPYDYWGQGTQVTVSS | high polyreactivity
21 | QVQLVESGRGLVQAGGSLRLSCAASGSTFYIYAMGWYRQAPGKERELVAAISTTDGTTYYADSVKGRFTISRDNAKNTVYLQMNSLKPEDTAVYYCAAEWFGSVQPAYDYWGQGTQVTVSS | high polyreactivity
22 | QVQLVESGGGLVQAGGSLRLSCAASGFRLNAMGWYRQAPGKERELVAAITASGGSTYYADSVKGRFTISRDNAKNTVYLQMNSQKPEDTAVYYCARYHPVRGYNYWGQGTQVTVSS | high polyreactivity

Row | Sequence | polyreactivity (PSR sort gate)
23 | QVQLVESGGGLVQAGGSLRLSCAASGSIFPSYVMGWYRQAPGKERELVAGITSSGGSTYYADSVKGRFTISRDNAKNTVYLQMNSLKPEDTAVYYCAARWKPASYGYGYWGQGTQVTVSS | low polyreactivity
24 | QVQLVESGGGLVQAGGSLRISCAASGFIFRQYAMGWYRQAPGKERELVAAISRSGGSTYYADSVKGRFTISRDNAKNTVYLQMNSLKPEDTAVYYCNAVPRKYTDEFDYWGQGTQVTVSS | high polyreactivity
25 | QVQLVESGGGLVQAGGSLRLSCAASGRTLSRYAMGWYRQAPGKEREFVAGISASGGRTYYADSVKGRFTISRDNAKNTVYLQMNSLKPEDTAVYYCAAQLPWAGGKYDYWGQGTQVTVSS | high polyreactivity
26 | QVQLVESGGGLVQAGGSLRLSCAASGRIFYQYAMGWYRQAPGKERELVAAISWSGGNTYYADSVKGRFTISRDNAKKTVYFQMNSLKPEDPAVYYCNRYWYRDRLWLYDYWGQGTQVTVSS | high polyreactivity
27 | QVQLQESGGGLVQAGGSLRLSCAASGYISYWIYMGCYRQAPGKERELLPVLITVLVPIMRIACKAGFTISRDNAKNSVYLQMNSQKPEDTALYYCAVSWYNGDYFSYWGQGTQVTVSS | low polyreactivity
28 | QVQLVESGGGLVQAGGSLRLSCAASGSTFDIYAMGWYRQAPGKERELVAAIRGRGGSTYYADSVKGRFTISRDNAKNTVYFQMNSLKPEDTAVYYCAADSYATRYYYWGQGTQVTVSS | high polyreactivity
29 | QVQLVESGGGLVQAGGSLRLSCAASGSTLAVYAMLWYRQAPGKERELVAAISYSGGGTYYADSVKGRFTISRDNAKNTVYLQMNSLKPEDTAVYYCATDLYYEYFTWDYYWGQGTQVTVSS | low polyreactivity
30 | QVQLVESGGGLVQAGGSLRLSCAASGRIFKVYAMGWYRQAPGKERELVAAINWSTGSTYYADSVKGRFTISRDNAKNTVYLQMNSLKPEDTAVYYCAAKNLYSYDWGQGTQVTVSS | high polyreactivity
31 | QVQLVESGGGLVQAGGSLRLSCAASGSTFYKYAMGWYRQAPGKERELVASISRSGGSTSYADSVKGRFTISRDNAKNTVYLQMNSLKPEDTAVYYCAADRYSSPYYSSPNEYDYWGQGTQVTVSS | high polyreactivity
32 | QDQLVESAGGLVQAGGSLSLSCAATGFTFYYNAMGWYRPAAGKERELVASITRSGGRTYYADSVKGRFTISRDNAKNTVYLQMNSLKPEDTAVFYCARRYPGGYYWGQGTQVTVSS | high polyreactivity
33 | QVQLVESAGGLVQAGGSLRLSCAASGRTLRGYAMGWYRQAPGKERELVAAITWSGGSTYYADSVKGRFTISRDNAKNTVYLQMNSLKPEDTAVYYCNARSYPDLYDYWGQGTQVTVSS | high polyreactivity
34 | QVQLVESGGGLVQAGGSLRLSCAASGGTFRRYAMGWYRQAPGKEREFVAAITISGGNTYYADSVKGRFTISRDNAKNTVYLQMNSLKPEDTAVYYCAKDHIRKQPEGRRMDYWGQGTQVTVSS | low polyreactivity
35 | QVQLVESAGGLVQAGGSLRLSCAASGRIFRYYVMGWYRQAPGKEREFVASISGRGASTYYADSVKGRFTISRDNAKNTVYLQMNSLKPEDTAVYYCNADVWLLSYFPEYDYWGQGTQVTVSS | low polyreactivity
36 | QVHLVESGGGLVQAGGSLRISCAASGSTFVYYAMGWYRQAPGTERELVAAISVSGDSTYYADSVKGRFTISRDNAKNTVYLQMNSLKPEDTAVYYCATEVYWTVSYYGYDYYGGNYYYWGQGTQVTVSS | low polyreactivity
37 | QVQLVESGGGLVQAGGSLRLSCAASGRTFFYNAMGWYRQAPGKERELVAAISYSGGSTYYADSVKGRFTISRDNAKNTVYLQMNSLKPEDTAVYYCAAYHYARYRTSAGNYYWGQGTQVTVSS | high polyreactivity
38 | QVQLVESGGGLVQAGGSLRLSFAASGFIFGLNAKGWYRQAPAKERELVAAIRWRGDTTYYADSVKGRFTISRDNAKNTVYLQMKSLKPEDTAVYSCNAVVVPSRYDYWGQGTQVTVSS | low polyreactivity
39 | QVQLVESGGGLVQAGGSLRLSCAASGITFVRYAMGWYRQAPGKEREFVARISRSGASTYYADSVKGRFTISRDNAKNTVYLQMNSLKPEDTAVYYCNKVYISREDYWGQGTQVTVSS | high polyreactivity
40 | QVQLVESGGGLVQAGGSLRLSCAASGSIFYTYVMGWYRQAPGKERELVAAISASGVRTYYADSVKGRFTISRDNAKNTVYLQMNSLKPEDTAVYYCAARYATWYFRRGRKTSDYDYWGQGTQVTVSS | high polyreactivity
41 | QVQVVESGGGLVQAGGSLRLSCAASGRIFPLYAMGWSRQAPGTERELVAAISSGGTTYYADSVKGRFTFSRDNAKNTVYLQMNSLKPEDTAVYYCARRPAQRWGRFDYWGQGTQVTVSS | low polyreactivity
42 | QVQLVESGGGLVQAGGSLRLSCAASGLTFSYYAMGWYRQAPGKERELVAAITSGGNTNYADSVKGRFTISRDNAKNTVYLQMNSLKPEDTAVYYCAARFYFTRSFPRKFYYWGQGTQVTVSS | high polyreactivity
43 | QVQLEESGGGLVQAGGSLRLSCAASGIIFIDYAMGWYRQAPGKERELVAAISNGGSTYYADSVKGSFTISRDNAKNTVYLQMNSLKPEDTEVYYCAAGGALASHWSKKLYDYWGQGTQVTVSS | low polyreactivity
